The assay has as its target T1, human MAdCAM (human, UniProt Q13477 19-317, limits assumed).
T1 construct: also called huMAdCAM; human MAdCAM-1
T1 sequence (looked up): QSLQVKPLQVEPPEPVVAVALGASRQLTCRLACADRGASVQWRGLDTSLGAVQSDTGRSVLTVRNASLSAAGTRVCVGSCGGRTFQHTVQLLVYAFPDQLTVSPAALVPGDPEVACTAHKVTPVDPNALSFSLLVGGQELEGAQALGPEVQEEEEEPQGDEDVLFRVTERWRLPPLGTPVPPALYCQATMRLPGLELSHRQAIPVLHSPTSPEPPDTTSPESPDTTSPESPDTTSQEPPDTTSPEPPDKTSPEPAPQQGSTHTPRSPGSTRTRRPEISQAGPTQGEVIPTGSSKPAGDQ
In words: BLI (Octet), binder on AHC tips. In short, it runs like this:
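Octet96 RED assay with anti-human IgG Fc biosensors equilibrated 20 minutes in assay buffer. Test article at 10 μg/mL in assay buffer was loaded onto tips for 240 s. Association with MAdCAM lasted 120 s and dissociation in assay buffer 120 s; MAdCAM-1 was a seven-point serial dilution from 200 nM down to 3.13 nM. Kinetic rates and dissociation constant came from a global one-to-one fit in the Octet data analysis software.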

B1: PMAB2 (bispecific antibody, human IgG1, kappa)
heavy: EVQLLESGGGLVQPGGSLRLSCAASGFTFSNSDMSWVRQAPGKGLEWVSGITISGGSTYYADSVKGRFTISRDNSKNTLYLQMNSLRAEDTAVYYCARGRGGSGWLDYWGQGTLVTVSSASTKGPSVFPLAPSSKSTSGGTAALGCLVKDYFPEPVTVSWNSGALTSGVHTFPAVLQSSGLYSLSSVVTVPSSSLGTQTYICNVNHKPSNTKVDKKVEPKSCDKTHTCPPCPAPEAAGAPSVFLFPPKPKDTLMISRTPEVTCVVVDVSHEDPEVKFNWYVDGVEVHNAKTKPREEQYNSTYRVVSVLTVLHQDWLNGKEYKCKVSNKALPAPIEKTISKAKGQPREPQVYTLPPSREEMTKNQVSLTCLVKGFYPSDIAVEWESNGQPENNYKTTPPVLDSDGSFFLYSKLTVDKSRWQQGNVFSCSVMHEALHNHYTQKSLSLSPGGGGGSGGGGSGGGGSEVQLLESGGGLVQPGGSLRLSCAASGFTFSSYWMHWVRQAPGKGLEWVSAISGSSGSTYYADSVKGRFTISRDNSKNTLYLQMNSLRAEDTAVYYCARDRPYGYYMDVWGKGTTVTVSSGGGGSGGGGSGGGGSGGGGSDIQMTQSPSSLSASVGDRVTITCRASQSISSSLAWYQQKPGKAPKLLIYAASSLQSGVPSRFSGSGSGTDFTLTISSLQPEDFATYYCQQYKSYPVTFGQGTKVEIK
light: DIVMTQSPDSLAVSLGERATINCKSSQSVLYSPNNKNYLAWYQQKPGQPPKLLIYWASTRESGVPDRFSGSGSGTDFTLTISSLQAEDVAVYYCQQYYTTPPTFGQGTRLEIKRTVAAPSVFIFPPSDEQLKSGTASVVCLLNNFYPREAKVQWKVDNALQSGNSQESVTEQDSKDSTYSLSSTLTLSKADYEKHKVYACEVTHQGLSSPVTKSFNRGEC
As for B1, the dissociation constant (Kd) was determined as 175 nM, the koff was 0.127 s⁻¹ and the kon was 725000 M⁻¹ s⁻¹.

B2: PMAB8 (bispecific antibody, human IgG1, kappa)
heavy: EVQLLESGGGLVQPGGSLRLSCAASGFTFSNSDMSWVRQAPGKGLEWVSGITISGGSTYYADSVKGRFTISRDNSKNTLYLQMNSLRAEDTAVYYCARGRGGSGWLDYWGQGTLVTVSSASTKGPSVFPLAPSSKSTSGGTAALGCLVKDYFPEPVTVSWNSGALTSGVHTFPAVLQSSGLYSLSSVVTVPSSSLGTQTYICNVNHKPSNTKVDKKVEPKSCDKTHTCPPCPAPEAAGAPSVFLFPPKPKDTLMISRTPEVTCVVVDVSHEDPEVKFNWYVDGVEVHNAKTKPREEQYNSTYRVVSVLTVLHQDWLNGKEYKCKVSNKALPAPIEKTISKAKGQPREPQVYTLPPSREEMTKNQVSLTCLVKGFYPSDIAVEWESNGQPENNYKTTPPVLDSDGSFFLYSKLTVDKSRWQQGNVFSCSVMHEALHNHYTQKSLSLSPGGGGGSGGGGSGGGGSEVQLLESGGGLVQPGGSLRLSCAASGFTFSSYWMHWVRQAPGKGLEWISAISGSGGSTYYADSVKGRFTISRDNSKNTLYLQMNSLRAEDTAVYYCARDRPYGYYMDVWGKGTTVTVSSGGGGSGGGGSGGGGSGGGGSDIQMTQSPSSLSASVGDRVTITCRASQSISRSLAWYQQKPGKAPKLLIYAASSLQSGVPSRFSGSGSGTDFTLTISSLQPEDFATYYCQQYKSYPVTFGQGTKVEIK
light: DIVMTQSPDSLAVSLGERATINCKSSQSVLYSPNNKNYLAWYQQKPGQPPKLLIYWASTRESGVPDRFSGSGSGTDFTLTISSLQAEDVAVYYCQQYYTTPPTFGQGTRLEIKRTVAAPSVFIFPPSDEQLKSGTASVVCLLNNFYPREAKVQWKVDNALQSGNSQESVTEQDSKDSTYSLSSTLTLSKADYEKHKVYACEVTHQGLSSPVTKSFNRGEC
Consider B2, for which the Kd amounted to 71.4 nM, the koff was 0.0469 s⁻¹ and the on-rate constant (kon) is 656000 M⁻¹ s⁻¹.

B3: PMAB3 (bispecific antibody, human IgG1, kappa)
heavy: EVQLLESGGGLVQPGGSLRLSCAASGFTFSNSDMSWVRQAPGKGLEWVSGITISGGSTYYADSVKGRFTISRDNSKNTLYLQMNSLRAEDTAVYYCARGRGGSGWLDYWGQGTLVTVSSASTKGPSVFPLAPSSKSTSGGTAALGCLVKDYFPEPVTVSWNSGALTSGVHTFPAVLQSSGLYSLSSVVTVPSSSLGTQTYICNVNHKPSNTKVDKKVEPKSCDKTHTCPPCPAPEAAGAPSVFLFPPKPKDTLMISRTPEVTCVVVDVSHEDPEVKFNWYVDGVEVHNAKTKPREEQYNSTYRVVSVLTVLHQDWLNGKEYKCKVSNKALPAPIEKTISKAKGQPREPQVYTLPPSREEMTKNQVSLTCLVKGFYPSDIAVEWESNGQPENNYKTTPPVLDSDGSFFLYSKLTVDKSRWQQGNVFSCSVMHEALHNHYTQKSLSLSPGGGGGSGGGGSGGGGSEVQLLESGGGLVQPGGSLRLSCAASGFTFSSYWMHWVRQAPGKGLEWVSAISGSSGSTYYADSVKGRFTISRDNSKNTLYLQMNSLRAEDTAVYYCARDRPYYYYMDVWGKGTTVTVSSGGGGSGGGGSGGGGSGGGGSDIQMTQSPSSLSASVGDRVTITCRASQSISSSLAWYQQKPGKAPKLLIYAASSLQSGVPSRFSGSGSGTDFTLTISSLQPEDFATYYCQQYKSYPVTFGQGTKVEIK
light: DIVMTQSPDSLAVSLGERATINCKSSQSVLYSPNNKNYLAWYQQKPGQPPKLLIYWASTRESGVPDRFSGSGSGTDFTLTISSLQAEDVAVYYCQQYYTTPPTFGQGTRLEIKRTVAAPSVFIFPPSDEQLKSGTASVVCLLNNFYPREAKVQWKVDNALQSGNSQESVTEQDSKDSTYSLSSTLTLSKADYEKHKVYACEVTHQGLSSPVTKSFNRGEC
Consider B3, for which the Kd stood at 333 nM, the koff came to 0.239 s⁻¹ and the on-rate constant (kon) is 717000 M⁻¹ s⁻¹.

B4: PMAB5 (bispecific antibody, human IgG1, kappa)
heavy: EVQLLESGGGLVQPGGSLRLSCAASGFTFSNSDMSWVRQAPGKGLEWVSGITISGGSTYYADSVKGRFTISRDNSKNTLYLQMNSLRAEDTAVYYCARGRGGSGWLDYWGQGTLVTVSSASTKGPSVFPLAPSSKSTSGGTAALGCLVKDYFPEPVTVSWNSGALTSGVHTFPAVLQSSGLYSLSSVVTVPSSSLGTQTYICNVNHKPSNTKVDKKVEPKSCDKTHTCPPCPAPEAAGAPSVFLFPPKPKDTLMISRTPEVTCVVVDVSHEDPEVKFNWYVDGVEVHNAKTKPREEQYNSTYRVVSVLTVLHQDWLNGKEYKCKVSNKALPAPIEKTISKAKGQPREPQVYTLPPSREEMTKNQVSLTCLVKGFYPSDIAVEWESNGQPENNYKTTPPVLDSDGSFFLYSKLTVDKSRWQQGNVFSCSVMHEALHNHYTQKSLSLSPGGGGGSGGGGSGGGGSEVQLLESGGGLVQPGGSLRLSCAASGFTFSSYWMHWVRQAPGKGLEWVSAISGSSGSTYYADSVKGRFTISRDNSKNTLYLQMNSLRAEDTAVYYCARDRPYYYYMDVWGKGTTVTVSSGGGGSGGGGSGGGGSGGGGSDIQMTQSPSSLSASVGDRVTITCRASQSISRSLAWYQQKPGKAPKLLIYAASSLQSGVPSRFSGSGSGTDFTLTISSLQPEDFATYYCQQYKSYPVTFGQGTKVEIK
light: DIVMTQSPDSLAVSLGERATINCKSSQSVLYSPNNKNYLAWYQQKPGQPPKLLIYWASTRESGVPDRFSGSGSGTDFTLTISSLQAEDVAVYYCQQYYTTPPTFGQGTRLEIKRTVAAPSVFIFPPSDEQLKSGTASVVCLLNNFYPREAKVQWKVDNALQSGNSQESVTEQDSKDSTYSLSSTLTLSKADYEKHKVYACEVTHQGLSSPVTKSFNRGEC
In turn, B4 yielded a Kd of 413 nM, a koff of 0.12 s⁻¹ and an association rate constant (kon) of 290000 M⁻¹ s⁻¹.

B5: PMAB6 (bispecific antibody, human IgG1, kappa)
heavy: EVQLLESGGGLVQPGGSLRLSCAASGFTFSNSDMSWVRQAPGKGLEWVSGITISGGSTYYADSVKGRFTISRDNSKNTLYLQMNSLRAEDTAVYYCARGRGGSGWLDYWGQGTLVTVSSASTKGPSVFPLAPSSKSTSGGTAALGCLVKDYFPEPVTVSWNSGALTSGVHTFPAVLQSSGLYSLSSVVTVPSSSLGTQTYICNVNHKPSNTKVDKKVEPKSCDKTHTCPPCPAPEAAGAPSVFLFPPKPKDTLMISRTPEVTCVVVDVSHEDPEVKFNWYVDGVEVHNAKTKPREEQYNSTYRVVSVLTVLHQDWLNGKEYKCKVSNKALPAPIEKTISKAKGQPREPQVYTLPPSREEMTKNQVSLTCLVKGFYPSDIAVEWESNGQPENNYKTTPPVLDSDGSFFLYSKLTVDKSRWQQGNVFSCSVMHEALHNHYTQKSLSLSPGGGGGSGGGGSGGGGSEVQLLESGGGLVQPGGSLRLSCAASGFTFSSYWMHWVRQAPGKGLEWISAISGSGGSTYYADSVKGRFTISRDNSKNTLYLQMNSLRAEDTAVYYCARDRPYGYYMDVWGKGTTVTVSSGGGGSGGGGSGGGGSGGGGSDIQMTQSPSSLSASVGDRVTITCRASQSISSSLAWYQQKPGKAPKLLIYAASSLQSGVPSRFSGSGSGTDFTLTISSLQPEDFATYYCQQYKSYPVTFGQGTKVEIK
light: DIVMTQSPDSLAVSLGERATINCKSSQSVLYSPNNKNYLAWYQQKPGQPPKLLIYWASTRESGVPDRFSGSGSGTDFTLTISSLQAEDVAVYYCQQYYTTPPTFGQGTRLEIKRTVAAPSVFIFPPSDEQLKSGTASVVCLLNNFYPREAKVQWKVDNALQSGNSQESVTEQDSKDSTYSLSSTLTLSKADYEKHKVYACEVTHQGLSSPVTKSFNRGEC
With B5, the dissociation constant Kd came out at 150 nM, the off-rate (koff) is 0.105 s⁻¹ and the on-rate constant (kon) stood at 698000 M⁻¹ s⁻¹.

B6: PMAB4 (bispecific antibody, human IgG1, kappa)
heavy: EVQLLESGGGLVQPGGSLRLSCAASGFTFSNSDMSWVRQAPGKGLEWVSGITISGGSTYYADSVKGRFTISRDNSKNTLYLQMNSLRAEDTAVYYCARGRGGSGWLDYWGQGTLVTVSSASTKGPSVFPLAPSSKSTSGGTAALGCLVKDYFPEPVTVSWNSGALTSGVHTFPAVLQSSGLYSLSSVVTVPSSSLGTQTYICNVNHKPSNTKVDKKVEPKSCDKTHTCPPCPAPEAAGAPSVFLFPPKPKDTLMISRTPEVTCVVVDVSHEDPEVKFNWYVDGVEVHNAKTKPREEQYNSTYRVVSVLTVLHQDWLNGKEYKCKVSNKALPAPIEKTISKAKGQPREPQVYTLPPSREEMTKNQVSLTCLVKGFYPSDIAVEWESNGQPENNYKTTPPVLDSDGSFFLYSKLTVDKSRWQQGNVFSCSVMHEALHNHYTQKSLSLSPGGGGGSGGGGSGGGGSEVQLLESGGGLVQPGGSLRLSCAASGFTFSSYWMHWVRQAPGKGLEWVSAISGSSGSTYYADSVKGRFTISRDNSKNTLYLQMNSLRAEDTAVYYCARDRPYGYYMDVWGKGTTVTVSSGGGGSGGGGSGGGGSGGGGSDIQMTQSPSSLSASVGDRVTITCRASQSISRSLAWYQQKPGKAPKLLIYAASSLQSGVPSRFSGSGSGTDFTLTISSLQPEDFATYYCQQYKSYPVTFGQGTKVEIK
light: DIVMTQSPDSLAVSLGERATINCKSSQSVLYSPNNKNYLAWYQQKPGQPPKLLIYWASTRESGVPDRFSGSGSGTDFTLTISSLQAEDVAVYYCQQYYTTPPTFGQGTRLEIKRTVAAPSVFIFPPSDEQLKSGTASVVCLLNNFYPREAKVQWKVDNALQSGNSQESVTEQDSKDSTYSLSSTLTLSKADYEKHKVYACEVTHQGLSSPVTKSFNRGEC
B6: the Kd turned out to be 41.8 nM, the koff turned out to be 0.0547 s⁻¹ and the kon amounted to 1.31e+06 M⁻¹ s⁻¹.

B7: PMAB7 (bispecific antibody, human IgG1, kappa)
heavy: EVQLLESGGGLVQPGGSLRLSCAASGFTFSNSDMSWVRQAPGKGLEWVSGITISGGSTYYADSVKGRFTISRDNSKNTLYLQMNSLRAEDTAVYYCARGRGGSGWLDYWGQGTLVTVSSASTKGPSVFPLAPSSKSTSGGTAALGCLVKDYFPEPVTVSWNSGALTSGVHTFPAVLQSSGLYSLSSVVTVPSSSLGTQTYICNVNHKPSNTKVDKKVEPKSCDKTHTCPPCPAPEAAGAPSVFLFPPKPKDTLMISRTPEVTCVVVDVSHEDPEVKFNWYVDGVEVHNAKTKPREEQYNSTYRVVSVLTVLHQDWLNGKEYKCKVSNKALPAPIEKTISKAKGQPREPQVYTLPPSREEMTKNQVSLTCLVKGFYPSDIAVEWESNGQPENNYKTTPPVLDSDGSFFLYSKLTVDKSRWQQGNVFSCSVMHEALHNHYTQKSLSLSPGGGGGSGGGGSGGGGSEVQLLESGGGLVQPGGSLRLSCAASGFTFSSYWMHWVRQAPGKGLEWISAISGSGGSTYYADSVKGRFTISRDNSKNTLYLQMNSLRAEDTAVYYCARDRPYYYYMDVWGKGTTVTVSSGGGGSGGGGSGGGGSGGGGSDIQMTQSPSSLSASVGDRVTITCRASQSISSSLAWYQQKPGKAPKLLIYAASSLQSGVPSRFSGSGSGTDFTLTISSLQPEDFATYYCQQYKSYPVTFGQGTKVEIK
light: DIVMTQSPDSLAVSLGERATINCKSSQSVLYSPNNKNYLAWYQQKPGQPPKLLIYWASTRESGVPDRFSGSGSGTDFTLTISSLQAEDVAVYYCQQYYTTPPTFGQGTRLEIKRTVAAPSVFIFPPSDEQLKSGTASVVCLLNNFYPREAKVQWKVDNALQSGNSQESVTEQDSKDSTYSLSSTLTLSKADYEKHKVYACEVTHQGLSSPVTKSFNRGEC
On to B7, for which the Kd came to 236 nM, the koff is 0.136 s⁻¹ and the on-rate constant (kon) was determined as 576000 M⁻¹ s⁻¹.
